Tests used:
[1] = target: T1, albumin from human blood plasma (human, UniProt P02768 25-609); test: film incubated with plasma, acid elution, non-reducing SDS-PAGE
T1 construct: Not purified: the albumin source was diluted human blood plasma
Experimental: (§1) To evaluate the ability of ABD-NTCT films to bind albumin, human blood plasma was used as albumin source. Four films of ABD-NTCT and ABD-CT were pre-wetted with 150 μl of 1×PBS followed by incubation of 100 μl of human blood plasma (1:5 dilution) for 30 min at room temperature. After washing three times with 200 μl 1×PBS, bound albumin was eluted in 50 μl by lowering the pH to approximately 2.7 with elution buffer (i.e. 0.5 M acetic acid, 1 M urea, 100 mM NaCl), after which the eluted fractions were analyzed by non-reducing SDS-PAGE. Films of NTCT and CT were used as control material, and were treated in the same way.

[2] = target: T1, albumin from human blood plasma; test: film incubated with human blood plasma (1:5), acid elution, non-reducing SDS-PAGE
Experimental: Films of His₆-ABD-CT were casted in 96-well plates (Tissue culture plate, Suspension cells, 83.1835.500, Sarstedt) from 15 μl of 1 mg/ml soluble fusion protein per film. The films were then allowed to solidify over night (20° C., 35% relative humidity). The same procedure was followed for casting films of His₆-ABD-NTCT from 15 μl of 1 mg/ml protein solution.
as §1

[3] = target: biotinylated antigen sample (antigen recognised by scFv1, specific for Systemic Lupus Erythematosus); test: microarray of spotted films, 10 nM biotinylated antigen, Alexa-647-streptavidin, spot intensity; reference: pure scFv1 control

T1 sequence (P02768 25-609 limits assumed): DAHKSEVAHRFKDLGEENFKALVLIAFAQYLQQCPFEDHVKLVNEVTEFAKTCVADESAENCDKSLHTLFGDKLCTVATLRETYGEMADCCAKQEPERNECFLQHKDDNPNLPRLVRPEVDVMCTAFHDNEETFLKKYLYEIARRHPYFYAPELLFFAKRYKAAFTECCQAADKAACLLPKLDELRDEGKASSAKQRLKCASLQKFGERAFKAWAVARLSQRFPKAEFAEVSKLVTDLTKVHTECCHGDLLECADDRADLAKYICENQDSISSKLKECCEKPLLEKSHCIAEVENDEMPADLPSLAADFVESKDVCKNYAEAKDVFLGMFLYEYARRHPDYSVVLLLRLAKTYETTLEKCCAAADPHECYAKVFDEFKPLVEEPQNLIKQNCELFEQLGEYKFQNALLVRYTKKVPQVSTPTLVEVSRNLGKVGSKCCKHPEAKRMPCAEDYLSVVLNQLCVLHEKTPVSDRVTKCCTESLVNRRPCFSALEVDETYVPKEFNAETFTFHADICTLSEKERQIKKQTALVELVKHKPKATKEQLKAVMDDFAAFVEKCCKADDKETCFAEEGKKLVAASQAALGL

B1: NTCT (control) film (other)
chain: HHHHHHMSHTTPWTNPGLAENFMNSFMQGLSSMPGFTASQLDDMSTIAQSMVQSIQSLAAQGRTSPNKLQALNMAFASSMAEIAASEEGGGSLSTKTSSIASAMSNAFLQTTGVVNQPFINEITQLVSMFAQAGMNDVSASASAGASAAASAGAGSGNSGIQGYGQSSASASAAASAASTVANSVSRLSSPSAVSRVSSAVSSLVSNGQVNMAALPNIISNISSSVSASAPGASGCEVIVQALLEVITALVQIVSSSSVGYINPSAVNQITNVVANAMAQVMG
notes: also called His6NT-CT; His6NTCT
[1]
  binding result: no binding (tested: human blood plasma (1:5 dilution))

B2: His6-ABD-NTCT fusion protein (other)
chain: MGSSGHHHHHHMLAEAKVLANRELDKYGVSDYYKNLINNAKTVEGVKALIDEILAALPGNSSHTTPWTNPGLAENFMNSFMQGLSSMPGFTASQLDDMSTIAQSMVQSIQSLAAQGRTSPNKLQALNMAFASSMAEIAASEEGGGSLSTKTSSIASAMSNAFLQTTGVVNQPFINEITQLVSMFAQAGMNDVSAGNSGIQGYGQSSASASAAASAASTVANSVSRLSSPSAVSRVSSAVSSLVSNGQVNMAALPNIISNISSSVSASAPGASGCEVIVQALLEVITALVQIVSSSSVGYINPSAVNQITNVVANAMAQVMG
notes: Tested as a solid film (polymer of the fusion protein) cast in 96-well plates from 15 ul of 1 mg/ml protein
[2]
  binding result: binds

B3: His6-ABD-CT fusion protein (other)
chain: MGHHHHHHMLAEAKVLANRELDKYGVSDYYKNLINNAKTVEGVKALIDEILAALPGNSGIQGYGQSSASASAAASAASTVANSVSRLSSPSAVSRVSSAVSSLVSNGQVNMAALPNIISNISSSVSASAPGASGCEVIVQALLEVITALVQIVSSSSVGYINPSAVNQITNVVANAMAQVMG
notes: as for B2
[2]
  binding result: binds

B4: CT (control) film (other)
chain: SRLSSPSAVSRVSSAVSSLVSNGQVNMAALPNIISNISSSVSASAPGASGCEVIVQALLEVITALVQIVSSSSVGYINPSAVNQITNVVANAMAQVMG
[1]
  binding result: no binding (tested: human blood plasma (1:5 dilution))

B5: His6-scFv1-NTCT fusion protein (scFv)
chain: MGSSGHHHHHHMEVQLLESGGGLVQPGGSLRLSCAASGFTFSSYEMNWVRQAPGKGLEWVSGISGSGGFTYYADSVKGRFTISRDNSKNTLYLQMNSLRAEDTAMYYCAREGYQDAFDIWGQGTLVTVSSGGGGSGGGGSGGGGSQSVLTQPPSASGTPGQRVTISCTGSSSNIGAGYDVHWYQQLPGTAPKLLIYSNNQRPSGVPDRFSGSKSGTSASLAISGLRSEDEADYYCAAWDDSLSGPPWVFGGGTKLTVLGEQKLISEEDLSGSAAAGNSSHTTPWTNPGLAENFMNSFMQGLSSMPGFTASQLDDMSTIAQSMVQSIQSLAAQGRTSPNKLQALNMAFASSMAEIAASEEGGGSLSTKTSSIASAMSNAFLQTTGVVNQPFINEITQLVSMFAQAGMNDVSAGNSGIQGYGQSSASASAAASAASTVANSVSRLSSPSAVSRVSSAVSSLVSNGQVNMAALPNIISNISSSVSASAPGASGCEVIVQALLEVITALVQIVSSSSVGYINPSAVNQITNVVANAMAQVMG
[3]
  fold increase of antigen recognition against the scFv1 control: 25 times
